According to US20160031968A1 (Bayer, published 2016):

T1: Var97, a variant of D519VE665V-FVIII with the additional amino acid substitutions I371P, V374F, V559L, R562W and Q565E
T1 sequence: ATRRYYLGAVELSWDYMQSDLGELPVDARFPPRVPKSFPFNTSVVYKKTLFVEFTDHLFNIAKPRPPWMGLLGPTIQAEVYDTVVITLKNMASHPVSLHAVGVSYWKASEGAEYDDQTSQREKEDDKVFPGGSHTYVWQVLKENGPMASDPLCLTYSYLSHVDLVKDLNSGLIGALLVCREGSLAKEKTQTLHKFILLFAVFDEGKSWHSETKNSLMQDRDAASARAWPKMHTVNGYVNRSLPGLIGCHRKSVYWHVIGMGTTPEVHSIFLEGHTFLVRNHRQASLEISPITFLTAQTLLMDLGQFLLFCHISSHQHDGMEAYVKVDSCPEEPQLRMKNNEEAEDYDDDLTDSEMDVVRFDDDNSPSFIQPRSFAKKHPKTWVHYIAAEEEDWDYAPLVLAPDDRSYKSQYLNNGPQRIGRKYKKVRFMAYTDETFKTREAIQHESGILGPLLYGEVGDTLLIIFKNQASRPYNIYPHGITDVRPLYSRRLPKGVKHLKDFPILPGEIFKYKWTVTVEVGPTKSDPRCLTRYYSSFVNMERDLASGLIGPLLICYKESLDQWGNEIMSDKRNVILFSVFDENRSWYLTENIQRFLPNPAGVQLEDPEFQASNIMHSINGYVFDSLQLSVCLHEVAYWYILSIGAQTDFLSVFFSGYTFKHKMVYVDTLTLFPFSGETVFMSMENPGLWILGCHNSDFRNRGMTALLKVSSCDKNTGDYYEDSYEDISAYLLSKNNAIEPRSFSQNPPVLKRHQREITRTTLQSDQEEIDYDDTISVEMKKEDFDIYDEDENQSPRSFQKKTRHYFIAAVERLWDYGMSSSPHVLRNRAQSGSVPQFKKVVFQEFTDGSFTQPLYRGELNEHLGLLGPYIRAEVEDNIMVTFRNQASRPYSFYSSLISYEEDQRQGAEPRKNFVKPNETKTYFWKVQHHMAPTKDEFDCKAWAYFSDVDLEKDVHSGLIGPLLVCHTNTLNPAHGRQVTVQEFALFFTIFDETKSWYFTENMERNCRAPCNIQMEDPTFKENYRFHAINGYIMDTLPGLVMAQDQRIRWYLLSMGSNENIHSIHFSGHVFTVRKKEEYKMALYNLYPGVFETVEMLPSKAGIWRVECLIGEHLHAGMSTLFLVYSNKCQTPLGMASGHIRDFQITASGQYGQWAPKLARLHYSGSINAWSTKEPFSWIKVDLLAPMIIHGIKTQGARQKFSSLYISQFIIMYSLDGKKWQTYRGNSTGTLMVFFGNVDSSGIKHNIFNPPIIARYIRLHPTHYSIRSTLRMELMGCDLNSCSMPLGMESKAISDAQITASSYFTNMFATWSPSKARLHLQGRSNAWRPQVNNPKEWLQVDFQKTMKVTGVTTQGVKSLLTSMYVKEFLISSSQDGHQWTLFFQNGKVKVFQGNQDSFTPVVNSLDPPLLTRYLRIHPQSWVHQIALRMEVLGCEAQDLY

T2: Var97-R336I
T2 sequence: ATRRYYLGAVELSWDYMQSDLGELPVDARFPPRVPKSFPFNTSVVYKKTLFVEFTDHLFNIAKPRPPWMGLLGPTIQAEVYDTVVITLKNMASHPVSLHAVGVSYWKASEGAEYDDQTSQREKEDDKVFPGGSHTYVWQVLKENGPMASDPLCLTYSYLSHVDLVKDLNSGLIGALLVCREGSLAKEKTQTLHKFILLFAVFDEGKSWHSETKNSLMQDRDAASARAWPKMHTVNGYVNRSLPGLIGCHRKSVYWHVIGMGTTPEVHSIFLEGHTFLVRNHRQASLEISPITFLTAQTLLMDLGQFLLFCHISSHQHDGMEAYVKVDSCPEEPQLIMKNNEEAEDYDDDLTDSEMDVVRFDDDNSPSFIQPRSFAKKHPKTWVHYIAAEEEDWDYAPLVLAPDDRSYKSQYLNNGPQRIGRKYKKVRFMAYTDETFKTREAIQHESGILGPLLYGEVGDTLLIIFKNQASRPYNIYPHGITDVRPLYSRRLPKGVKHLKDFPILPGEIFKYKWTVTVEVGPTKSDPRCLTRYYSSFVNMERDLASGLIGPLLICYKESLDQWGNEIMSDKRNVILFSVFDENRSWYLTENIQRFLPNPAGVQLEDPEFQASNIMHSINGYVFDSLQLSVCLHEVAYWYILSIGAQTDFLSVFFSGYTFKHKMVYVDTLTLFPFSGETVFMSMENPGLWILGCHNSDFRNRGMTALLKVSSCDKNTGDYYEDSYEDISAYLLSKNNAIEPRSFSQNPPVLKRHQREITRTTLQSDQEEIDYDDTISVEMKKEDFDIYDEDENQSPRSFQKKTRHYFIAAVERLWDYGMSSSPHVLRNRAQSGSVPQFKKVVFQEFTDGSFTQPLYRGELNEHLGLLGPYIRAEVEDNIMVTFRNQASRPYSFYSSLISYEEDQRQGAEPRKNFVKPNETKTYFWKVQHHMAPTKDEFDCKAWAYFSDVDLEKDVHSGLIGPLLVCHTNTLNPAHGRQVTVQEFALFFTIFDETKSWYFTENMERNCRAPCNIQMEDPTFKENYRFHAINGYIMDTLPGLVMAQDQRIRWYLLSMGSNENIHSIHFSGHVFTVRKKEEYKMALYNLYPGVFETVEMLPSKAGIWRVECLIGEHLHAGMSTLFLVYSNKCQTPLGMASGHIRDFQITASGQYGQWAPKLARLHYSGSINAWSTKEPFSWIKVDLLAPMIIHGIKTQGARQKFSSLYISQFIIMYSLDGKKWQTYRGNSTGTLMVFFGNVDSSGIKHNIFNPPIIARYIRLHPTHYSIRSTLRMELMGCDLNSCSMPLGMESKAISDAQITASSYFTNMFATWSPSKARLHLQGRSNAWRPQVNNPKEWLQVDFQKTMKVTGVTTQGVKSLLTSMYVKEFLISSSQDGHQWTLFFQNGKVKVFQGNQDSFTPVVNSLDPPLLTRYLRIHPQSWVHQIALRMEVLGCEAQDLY


Tests used:
[1] = test system: T1, Var97, a variant of D519VE665V-FVIII with the additional amino acid substitutions I371P, V374F, V559L, R562W and Q565E
Var97-R336I = test system: T2, Var97-R336I
[2] = molecular target: T3, Factor IXa (activated Coagulation Factor IX) (human, UniProt P00740 47-191; P00740 227-461, limits assumed); assay: FXase kinetic assay: thrombin-activated FVIII fixed at 10 pM, FIXa varied 0-10 nM, FXa generation read with S-2765 (functional affinity)
T3 construct: also called FIXa
Experimental: The function of the Var97 variant in its physiologic enzyme complex was examined using FXase kinetic assays. These FXase kinetic assays were performed in 10 mM HEPES pH 7.4, 150 mM NaCl, 5 mM CaCl2, 0.01% Tween 20, 0.01% BSA and 10 μM PL (40:40:20, v/v/v PS:PC:PE). In these FXase kinetic assays, purified FVIIIa proteins were generated by incubation with 20 nM thrombin. The FVIII level was held fixed at 10 pM and reacted with varying concentrations of FIXa (0-10 nM), or the FIXa level was held fixed at (100 pM) and the level of thrombin activated FVIIIa was varied (0-10 nM). FX (150 nM) was added to either types of reactions, and after 1 min., the FXase reactions were stopped by addition to EDTA. The amount of FXa generated in these reactions were measured using the S-2765 chromogenic substrate. FXa generation was then extrapolated from a standard curve relating FXa level to rates of chromogenic substrate cleavage. The data was fit to a standard Michaelis-Menten equation to derive kinetic constants.

T3 sequence (P00740 47-191 limits assumed, form in doubt, chain 1 of 2): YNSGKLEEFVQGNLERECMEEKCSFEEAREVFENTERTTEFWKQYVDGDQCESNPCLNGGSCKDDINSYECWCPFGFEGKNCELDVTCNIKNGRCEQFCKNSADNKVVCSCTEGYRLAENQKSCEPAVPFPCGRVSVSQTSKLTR
T3 sequence (P00740 227-461 limits assumed, form in doubt, chain 2 of 2): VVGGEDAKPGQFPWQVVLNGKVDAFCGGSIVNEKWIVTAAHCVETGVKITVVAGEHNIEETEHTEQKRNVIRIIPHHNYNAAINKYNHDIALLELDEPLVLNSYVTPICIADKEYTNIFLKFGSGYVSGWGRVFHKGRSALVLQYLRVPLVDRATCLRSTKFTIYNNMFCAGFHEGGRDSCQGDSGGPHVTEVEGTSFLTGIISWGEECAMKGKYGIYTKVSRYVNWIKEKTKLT

| Molecule | proteolytic cleavage of FVIII by excess FIXa in a FXase reaction (SDS-PAGE, Coomassie Blue) [1] | proteolytic cleavage in the FIXa digestion assay (SDS-PAGE) (Var97-R336I) | fold binding affinity for FIXa over FVIII-BDD [2] [fold] |
| --- | --- | --- | --- |
| Factor IXa (activated Coagulation Factor IX) | the Var97 Factor VIII variant shows enhanced proteolytic cleavage by FIXa relative to one or both of BDD and D519VE665V variant FVIII | proteolytic cleavage of Var97-R336I was markedly reduced as compared to Var97 | – |
| Var97, a variant of D519VE665V-FVIII with the additional amino acid substitutions I371P, V374F, V559L, R562W and Q565E (other, Purified from HKB11 cells; also called Var97 variant; Var97 Factor VIII variant) ATRRYYLGAVELSWDYMQSDLGELPVDARFPPRVPKSFPFNTSVVYKKTLFVEFTDHLFNIAKPRPPWMGLLGPTIQAEVYDTVVITLKNMASHPVSLHAVGVSYWKASEGAEYDDQTSQREKEDDKVFPGGSHTYVWQVLKENGPMASDPLCLTYSYLSHVDLVKDLNSGLIGALLVCREGSLAKEKTQTLHKFILLFAVFDEGKSWHSETKNSLMQDRDAASARAWPKMHTVNGYVNRSLPGLIGCHRKSVYWHVIGMGTTPEVHSIFLEGHTFLVRNHRQASLEISPITFLTAQTLLMDLGQFLLFCHISSHQHDGMEAYVKVDSCPEEPQLRMKNNEEAEDYDDDLTDSEMDVVRFDDDNSPSFIQPRSFAKKHPKTWVHYIAAEEEDWDYAPLVLAPDDRSYKSQYLNNGPQRIGRKYKKVRFMAYTDETFKTREAIQHESGILGPLLYGEVGDTLLIIFKNQASRPYNIYPHGITDVRPLYSRRLPKGVKHLKDFPILPGEIFKYKWTVTVEVGPTKSDPRCLTRYYSSFVNMERDLASGLIGPLLICYKESLDQWGNEIMSDKRNVILFSVFDENRSWYLTENIQRFLPNPAGVQLEDPEFQASNIMHSINGYVFDSLQLSVCLHEVAYWYILSIGAQTDFLSVFFSGYTFKHKMVYVDTLTLFPFSGETVFMSMENPGLWILGCHNSDFRNRGMTALLKVSSCDKNTGDYYEDSYEDISAYLLSKNNAIEPRSFSQNPPVLKRHQREITRTTLQSDQEEIDYDDTISVEMKKEDFDIYDEDENQSPRSFQKKTRHYFIAAVERLWDYGMSSSPHVLRNRAQSGSVPQFKKVVFQEFTDGSFTQPLYRGELNEHLGLLGPYIRAEVEDNIMVTFRNQASRPYSFYSSLISYEEDQRQGAEPRKNFVKPNETKTYFWKVQHHMAPTKDEFDCKAWAYFSDVDLEKDVHSGLIGPLLVCHTNTLNPAHGRQVTVQEFALFFTIFDETKSWYFTENMERNCRAPCNIQMEDPTFKENYRFHAINGYIMDTLPGLVMAQDQRIRWYLLSMGSNENIHSIHFSGHVFTVRKKEEYKMALYNLYPGVFETVEMLPSKAGIWRVECLIGEHLHAGMSTLFLVYSNKCQTPLGMASGHIRDFQITASGQYGQWAPKLARLHYSGSINAWSTKEPFSWIKVDLLAPMIIHGIKTQGARQKFSSLYISQFIIMYSLDGKKWQTYRGNSTGTLMVFFGNVDSSGIKHNIFNPPIIARYIRLHPTHYSIRSTLRMELMGCDLNSCSMPLGMESKAISDAQITASSYFTNMFATWSPSKARLHLQGRSNAWRPQVNNPKEWLQVDFQKTMKVTGVTTQGVKSLLTSMYVKEFLISSSQDGHQWTLFFQNGKVKVFQGNQDSFTPVVNSLDPPLLTRYLRIHPQSWVHQIALRMEVLGCEAQDLY | – | – | ≥ 4 |
